In patent US20190010203A1 (ADEPTHERA, published 2019):
One block for each binder: values may come before it. Non-standard residues stand in square brackets, D forms with d. No end group written: not given here. *: point of attachment. Palmitoyl = CCCCCCCCCCCCCCCC(=O)*; AEEEA = NCCOCCOCCOCC(=O)O

Assays:
Experiment in all cases: cell-based or functional assay
CLR/RAMP1 receptor [1] = target: T1, CLR/RAMP1 receptor (UniProt Q16602 23-461; O60894 27-148, limits assumed)
CLR/RAMP2 receptor [2] = target: T2, CLR/RAMP2 receptor (UniProt Q16602 23-461; O60895 43-175, limits assumed)
CLR/RAMP1 receptor [3] = target: T1, CLR/RAMP1 receptor; remark: listed apart in the source
CLR/RAMP2 receptor [4] = target: T2, CLR/RAMP2 receptor; remark: listed apart in the source

T2 sequence (Q16602 23-461 limits assumed, chain 1 of 2): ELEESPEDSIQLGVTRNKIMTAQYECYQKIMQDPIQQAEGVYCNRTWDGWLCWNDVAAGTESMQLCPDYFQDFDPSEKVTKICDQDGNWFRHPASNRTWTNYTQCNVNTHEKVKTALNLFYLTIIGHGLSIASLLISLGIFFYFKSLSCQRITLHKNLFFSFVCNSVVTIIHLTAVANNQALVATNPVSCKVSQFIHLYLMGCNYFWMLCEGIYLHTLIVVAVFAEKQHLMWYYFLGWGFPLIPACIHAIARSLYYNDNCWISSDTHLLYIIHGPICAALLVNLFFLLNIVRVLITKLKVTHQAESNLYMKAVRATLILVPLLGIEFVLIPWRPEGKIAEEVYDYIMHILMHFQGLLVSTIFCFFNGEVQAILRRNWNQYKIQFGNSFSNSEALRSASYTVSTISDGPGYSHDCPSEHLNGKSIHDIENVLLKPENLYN
T2 sequence (O60895 43-175 limits assumed, chain 2 of 2): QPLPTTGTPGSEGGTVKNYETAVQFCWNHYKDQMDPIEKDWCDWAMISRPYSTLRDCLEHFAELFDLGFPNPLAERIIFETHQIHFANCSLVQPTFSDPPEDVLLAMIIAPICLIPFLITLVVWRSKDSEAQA
T1 sequence (Q16602 23-461 limits assumed, chain 1 of 2): as the sequence (Q16602 23-461 limits assumed, chain 1 of 2) above
T1 sequence (O60894 27-148 limits assumed, chain 2 of 2): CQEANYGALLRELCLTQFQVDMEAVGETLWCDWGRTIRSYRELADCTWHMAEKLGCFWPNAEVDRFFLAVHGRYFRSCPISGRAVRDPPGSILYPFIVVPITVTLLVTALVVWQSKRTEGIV

Max Activity % of positive control, CLR/RAMP1 cAMP assay (CLR/RAMP1 receptor [1]): 67 % of positive control | Max Activity % of positive control, CLR/RAMP2 arrestin assay (CLR/RAMP2 receptor [2]): 82 % of positive control
Binder: miniPEG-K(Palmitoyl)GCRFGTCTVQKLAHQIYQFTDKDKDNVDPSSPHSY-NH2 (cysteine pairing not given here) [SEQ ID NO: 94]

IC50 (nM), CGRP-stimulated CLR/RAMP1 cAMP assay (CLR/RAMP1 receptor [3]): 1120 nM | IC50 (nM), ADM-stimulated CLR/RAMP2 arrestin assay (CLR/RAMP2 receptor [4]): 289 nM
Binder: Ac-TVQKLAHQIYQFTDKDKDNSAPVDPSSPHSY-NH2 [SEQ ID NO: 76]

EC50 (nM), CLR/RAMP1 cAMP assay (CLR/RAMP1 receptor [1]): 771 nM | EC50 (nM), CLR/RAMP2 arrestin assay (CLR/RAMP2 receptor [2]): 17 nM
Binder: Ac-KGCRFGTCTVQKLAHQIYQFTDKDSAPVDPSSPHSY-NH2 (ends and bridges not checked) [SEQ ID NO: 93]

IC50 (nM), CGRP-stimulated CLR/RAMP1 cAMP assay (CLR/RAMP1 receptor [3]): 7 nM | IC50 (nM), ADM-stimulated CLR/RAMP2 arrestin assay (CLR/RAMP2 receptor [4]): 7.1 nM
Binder: Palmitoyl-KVQKLAHQIYQFTDKSAPVDPSSPHSY-NH2 [SEQ ID NO: 125]

EC50 (nM), CLR/RAMP1 cAMP assay (CLR/RAMP1 receptor [1]): 31 nM | EC50 (nM), CLR/RAMP2 arrestin assay (CLR/RAMP2 receptor [2]): 18 nM
Binder: Ac-KGCRFGTCTVQKLAHQIYQFTDKDKDNSAPVDPSSPHSY-NH2 (ends and bridges not checked) [SEQ ID NO: 59]

Max Activity % of positive control, CLR/RAMP1 cAMP assay (CLR/RAMP1 receptor [1]): 2 % of positive control
Binder: [AEEEA]K(Palmitoyl)GCRFGTCTVQKLAHLWQLMGPAGRQDSAPVDPSSPHSY-NH2 (ends and bridges not checked) [SEQ ID NO: 62]

EC50 (nM), CLR/RAMP1 cAMP assay (CLR/RAMP1 receptor [1]): 234 nM
Binder: Ac-K(Palmitoyl)GCRFGTCTVQKLAHQIYQFTDKDKDNVAPRSKSSPHSY-NH2 (ends and bridges not checked) [SEQ ID NO: 65]

EC50 (nM), CLR/RAMP1 cAMP assay (CLR/RAMP1 receptor [1]): 16 nM | EC50 (nM), CLR/RAMP2 arrestin assay (CLR/RAMP2 receptor [2]): 3 nM
Binder: Ac-KGCRFGTCTVQKLAHQIYQFTDKDKDNVAPVDPSSPHSY-NH2 (ends and bridges not checked) [SEQ ID NO: 60]

Max Activity % of positive control, CLR/RAMP1 cAMP assay (CLR/RAMP1 receptor [1]): 69 % of positive control | Max Activity % of positive control, CLR/RAMP2 arrestin assay (CLR/RAMP2 receptor [2]): 68 % of positive control
Binder: miniPEG-K(Palmitoyl)TKKTLRTGCRFGTCTVQKLAHQIYQFTDKDKDNVAPRSKISPQGY-NH2 (ends and bridges not checked) [SEQ ID NO: 70]

IC50 (nM), CGRP-stimulated CLR/RAMP1 cAMP assay (CLR/RAMP1 receptor [3]): 9.9 nM | IC50 (nM), ADM-stimulated CLR/RAMP2 arrestin assay (CLR/RAMP2 receptor [4]): 47 nM
Binder: Palmitoyl-TVQKLAHQIYQFTDKDKDNSAPVDPSSPHSY-NH2 [SEQ ID NO: 77]

EC50 (nM), CLR/RAMP1 cAMP assay (CLR/RAMP1 receptor [1]): 43 nM | EC50 (nM), CLR/RAMP2 arrestin assay (CLR/RAMP2 receptor [2]): 6.4 nM
Binder: Palmitoyl-KGCRFGTCTVQKLAHQIYQFTDKDAPVDPSSPHSY-NH2 (ends and bridges not checked) [SEQ ID NO: 110]

Max Activity % of positive control, CLR/RAMP1 cAMP assay (CLR/RAMP1 receptor [1]): 69 % of positive control | Max Activity % of positive control, CLR/RAMP2 arrestin assay (CLR/RAMP2 receptor [2]): 102 % of positive control
Binder: Ac-FGCRFGTCTVQKLAHQIYQFTDKDKDNVAPRSKISPQGY-NH2 (cysteine pairing not given here) [human ADM, SEQ ID NO: 53]

EC50 (nM), CLR/RAMP1 cAMP assay (CLR/RAMP1 receptor [1]): 34 nM | EC50 (nM), CLR/RAMP2 arrestin assay (CLR/RAMP2 receptor [2]): 49 nM
B3: SEQ ID NO: 73 (peptide)
peptide: KGCRFGTCTVQKLAHQIYQFTDKDKDNVAPRSKISPQGY
modifications: N-terminal palmitoyl (Pal); palmitoyl on Lys 1 side chain, K(Pal); C-terminal amide

The next lines start with the binder.

B1: SEQ ID NO: 40 (peptide)
peptide: Palmitoyl-KTKKTLRTGCRFGTCTVQKLAHQIYQFTDKDKDNVAPVDPSSPHSY-NH2
modifications: not fully specified; printed as Pal-KTKKTLRTGCRFGTCTVQKLAHQIYQFTDKDKDNVAPVDPSSPHSY-NH2; ends and bridges not checked
EC50 (nM), CLR/RAMP1 cAMP assay (CLR/RAMP1 receptor [1]): 2 nM | EC50 (nM), CLR/RAMP2 arrestin assay (CLR/RAMP2 receptor [2]): 1 nM

Binder: [AEEEA]K(Palmitoyl)GCRFGTCTVQKLAHQIYQFTDKDKDSAPVDPSSPHSY-NH2 (ends and bridges not checked) [SEQ ID NO: 46]
EC50 (nM), CLR/RAMP2 arrestin assay (CLR/RAMP2 receptor [2]): 0.5 nM | Max Activity % of positive control, CLR/RAMP2 arrestin assay (CLR/RAMP2 receptor [2]): 104 % of positive control

Binder: Palmitoyl-KGCRFGTCTVQKLAHQIYQFTDKDKDNVAPVDPSSPHSY-NH2 (ends and bridges not checked) [SEQ ID NO: 34]
EC50 (nM), CLR/RAMP1 cAMP assay (CLR/RAMP1 receptor [1]): 0.2 nM | EC50 (nM), CLR/RAMP2 arrestin assay (CLR/RAMP2 receptor [2]): 0.7 nM

Binder: Palmitoyl-KCRFGTCTVQKLAHQIYQFTDKDKDNSAPVDPSSPHSY-NH2 (ends and bridges not checked) [SEQ ID NO: 44]
EC50 (nM), CLR/RAMP1 cAMP assay (CLR/RAMP1 receptor [1]): 0.1 nM | EC50 (nM), CLR/RAMP2 arrestin assay (CLR/RAMP2 receptor [2]): 0.2 nM

Binder: [AEEEA]K(Palmitoyl)GCRFGTCTVQKLAHQIYQFTDKDKQDSAPVDPSSPHSY-NH2 (ends and bridges not checked) [SEQ ID NO: 51]
EC50 (nM), CLR/RAMP2 arrestin assay (CLR/RAMP2 receptor [2]): 0.3 nM

Binder: Ac-VGCRFGTCTVQKLAHQIYQFTPAGRQDSAPVDPSSPHSY-NH2 (ends and bridges not checked) [SEQ ID NO: 57]
EC50 (nM), CLR/RAMP1 cAMP assay (CLR/RAMP1 receptor [1]): 909 nM | EC50 (nM), CLR/RAMP2 arrestin assay (CLR/RAMP2 receptor [2]): 149 nM

B2: SEQ ID NO: 38 (peptide)
peptide: Palmitoyl-KTKKTLRTGCRFGTCTVQKLAHQIYQFTDKDKDNSAPVDPSSPHSY-NH2
modifications: not fully specified; printed as Pal-KTKKTLRTGCRFGTCTVQKLAHQIYQFTDKDKDNSAPVDPSSPHSY-NH2; ends and bridges not checked
EC50 (nM), CLR/RAMP1 cAMP assay (CLR/RAMP1 receptor [1]): 0.5 nM | EC50 (nM), CLR/RAMP2 arrestin assay (CLR/RAMP2 receptor [2]): 0.7 nM

Binder: Palmitoyl-KGCRFGTCTVQKLAHQIYQFTDKDKDNSAPVDPSSPHSY-NH2 (ends and bridges not checked) [SEQ ID NO: 30]
EC50 (nM), CLR/RAMP1 cAMP assay (CLR/RAMP1 receptor [1]): 0.4 nM | EC50 (nM), CLR/RAMP2 arrestin assay (CLR/RAMP2 receptor [2]): 0.6 nM

Binder: Ac-TK(Palmitoyl)KTLRTGCRFGTCTVQKLAHQIYQFTDKDKDNSAPVDPSSPHSY-NH2 (ends and bridges not checked) [SEQ ID NO: 39]
EC50 (nM), CLR/RAMP1 cAMP assay (CLR/RAMP1 receptor [1]): 0.2 nM | EC50 (nM), CLR/RAMP2 arrestin assay (CLR/RAMP2 receptor [2]): 0.5 nM

Binder: Palmitoyl-KGCRFGTCTVQKLAHQIYQFTDKDKQDSAPVDPSSPHSY-NH2 (ends and bridges not checked) [SEQ ID NO: 35]
EC50 (nM), CLR/RAMP1 cAMP assay (CLR/RAMP1 receptor [1]): 0.8 nM | EC50 (nM), CLR/RAMP2 arrestin assay (CLR/RAMP2 receptor [2]): 1 nM

Binder: Palmitoyl-KGCRFGTCTVQKLAHQIYQFTDKGRQDSAPVDPSSPHSY-NH2 (ends and bridges not checked) [SEQ ID NO: 36]
EC50 (nM), CLR/RAMP1 cAMP assay (CLR/RAMP1 receptor [1]): 0.6 nM | EC50 (nM), CLR/RAMP2 arrestin assay (CLR/RAMP2 receptor [2]): 0.9 nM

Binder: Palmitoyl-KGCRFGTCTVQKLAHQIYQFTPAGRQDSAPVDPSSPHSY-NH2 (ends and bridges not checked) [SEQ ID NO: 31]
EC50 (nM), CLR/RAMP1 cAMP assay (CLR/RAMP1 receptor [1]): 0.8 nM | EC50 (nM), CLR/RAMP2 arrestin assay (CLR/RAMP2 receptor [2]): 0.9 nM

Binder: Ac-VGCRFGTCTVQKLAHQIYQFTDKDKDNSAPVDPSSPHSY-NH2 (ends and bridges not checked) [SEQ ID NO: 56]
EC50 (nM), CLR/RAMP1 cAMP assay (CLR/RAMP1 receptor [1]): 224 nM | EC50 (nM), CLR/RAMP2 arrestin assay (CLR/RAMP2 receptor [2]): 17 nM

Binder: miniPEG-TK(Palmitoyl)KTLRTGCRFGTCTVQKLAHQIYQFTDKDKDNVAPVDPSSPHSY-NH2 (cysteine pairing not given here) [SEQ ID NO: 42]
EC50 (nM), CLR/RAMP2 arrestin assay (CLR/RAMP2 receptor [2]): 0.2 nM

Binder: Ac-TK(Palmitoyl)KTLRTGCRFGTCTVQKLAHQIYQFTDKDKDNVAPVDPSSPHSY-NH2 (ends and bridges not checked) [SEQ ID NO: 41]
EC50 (nM), CLR/RAMP1 cAMP assay (CLR/RAMP1 receptor [1]): 0.4 nM | EC50 (nM), CLR/RAMP2 arrestin assay (CLR/RAMP2 receptor [2]): 0.9 nM

Binder: miniPEG-K(Palmitoyl)GCRFGTCTVQKLAHQIYQFTDKDKDNVAPVDPSSPHSY-NH2 (cysteine pairing not given here) [SEQ ID NO: 50]
Max Activity % of positive control, CLR/RAMP1 cAMP assay (CLR/RAMP1 receptor [1]): 65 % of positive control | Max Activity % of positive control, CLR/RAMP2 arrestin assay (CLR/RAMP2 receptor [2]): 87 % of positive control

Binder: Ac-K(Palmitoyl)GCRFGTCTVQKLAHQIYQFTPAGRQDSAPVDPSSPHSY-NH2 (ends and bridges not checked) [SEQ ID NO: 33]
EC50 (nM), CLR/RAMP1 cAMP assay (CLR/RAMP1 receptor [1]): 0.3 nM | EC50 (nM), CLR/RAMP2 arrestin assay (CLR/RAMP2 receptor [2]): 0.4 nM

Binder: Palmitoyl-GCRFGTCTVQKLAHQIYQFTDKDKDNSAPVDPSSPHSY-NH2 (ends and bridges not checked) [SEQ ID NO: 45]
EC50 (nM), CLR/RAMP1 cAMP assay (CLR/RAMP1 receptor [1]): 0.1 nM | EC50 (nM), CLR/RAMP2 arrestin assay (CLR/RAMP2 receptor [2]): 0.3 nM

Binder: miniPEG-K(Palmitoyl)GCRFGTCTVQKLAHQIYQFTDKDKSAPVDPSSPHSY-NH2 (ends and bridges not checked) [SEQ ID NO: 47]
Max Activity % of positive control, CLR/RAMP1 cAMP assay (CLR/RAMP1 receptor [1]): 85 % of positive control | EC50 (nM), CLR/RAMP2 arrestin assay (CLR/RAMP2 receptor [2]): 0.4 nM | Max Activity % of positive control, CLR/RAMP2 arrestin assay (CLR/RAMP2 receptor [2]): 64 % of positive control

Binder: [AEEEA]K(Palmitoyl)CRFGTCTVQKLAHQIYQFTDKDKDNSAPVDPSSPHSY-NH2 (ends and bridges not checked) [SEQ ID NO: 43]
EC50 (nM), CLR/RAMP1 cAMP assay (CLR/RAMP1 receptor [1]): 0.5 nM | Max Activity % of positive control, CLR/RAMP1 cAMP assay (CLR/RAMP1 receptor [1]): 39 % of positive control | EC50 (nM), CLR/RAMP2 arrestin assay (CLR/RAMP2 receptor [2]): 0.2 nM | Max Activity % of positive control, CLR/RAMP2 arrestin assay (CLR/RAMP2 receptor [2]): 30 % of positive control
